Test results reported in patent US20180258175A1 (ABLEXIS, published 2018).
Read-outs that look alike come from different tables or passages of the source.

Columns and labels:
[1] = molecular target: T1, native CD115 on OCI-AML5 cells (UniProt P07333 20-972, limits assumed); test: cell-based or functional assay
[2] = molecular target: T2, human CD115 extracellular domain (Sino Biological 10161-H08H) (human, UniProt P07333 20-517); test: SPR ProteOn, mAb amine coupled, Hu CD115 analyte
T2 construct: extracellular domain; bought recombinant protein; also called huCD115; hu-CD115

[3] = molecular target: T2, human CD115 extracellular domain (Sino …); test: ELISA, blocking of biotin-CSF-1 binding to coated hu-CD115
[4] = molecular target: T2, human CD115 extracellular domain (Sino …); test: as above; remark: listed apart in the source
[5] = molecular target: T1, native CD115 on OCI-AML5 cells; test: cell-based or functional assay; remark: listed apart in the source

B1: CCK-423A (antibody, V domains shown)
VH: QVQLEQSGAEVKRPGASVKVSCKASGYTFTGYYMHWVRQAPGQGLEWMGWINPNRGDTNYAQKFQGRVTMTRDTSISTAYMELSRLRSDDTAVYYCARDLEGGGPFDYWGQGTLVTVSS
VL: DIVMTQTPLSLPVTPGEPASISCRSSQSLLDSDDGNTYLDWYLQKPGQSPQLLIYTLSYRASGVPDRFSGSGSGTDFTLKISRVEAEDVGVYYCMQRIEFPSTFGQGTRLEIK
notes: AlivaMab chimeric IgG, human kappa LC; also called AlivaMab CCK423A; AlivaMab Mouse CCK423A
B1 was tested, and the “IC50, inhibition of CSF-1 induced phosphorylation of CD115” value [1] was 0.045 nM, the Kd [2] was 1.2 nM and the koff [2] was 0.015 s⁻¹. For the same binder, the kon [2] was 1.3e+07 M⁻¹ s⁻¹, the IC50 [3] was 0.191 nM and the IC50 [4] was 0.135 nM. For the same binder, the “IC50, inhibition of CSF-1 induced P-Tyr on CD115” value [5] was 0.058 nM.
